Values belong to the binder of their own block, whether it stands above or below them.
Assays:
[1] = molecular target: T1, biotinylated cyno MIGIS-α peptide (cynomolgus monkey); assay: SPR (Biacore T200, 37 C), biotinylated peptide captured, OAA as analyte, 1:1 fit
T1 construct: domain: MIGIS-α

[2] = molecular target: T2, biotinylated human MIGIS-α peptide (human, biotinylated); assay: as above
T2 peptide: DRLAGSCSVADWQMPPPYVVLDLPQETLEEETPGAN

[3] = molecular target: T3, human membrane IgA overexpressed on Ramos cells (human); assay: flow cytometry on IgA Ramos cells, OAA format; reference
T3 construct: its MIGIS-α segment is the short form; also called IgA^+ Ramos; human IgA^+ RAMOS cells

[4] = molecular target: T1, biotinylated cyno MIGIS-α peptide; assay: SPR, OAA format
[5] = molecular target: T2, biotinylated human MIGIS-α peptide; assay: SPR, OAA format
[6] = molecular target: recombinant human CD3 epsilon (human, UniProt P07766 23-126, limits assumed); assay: SPR
[7] = molecular target: T4, parental (IgA^-) Ramos cell line, which expresses only cell surface IgM (UniProt P01871 1-474); assay: flow cytometry on parental Ramos cells (IgM only), MFI minus background
T4 construct: whole, on cells; Negative control cells without membrane IgA; also called mIgA negative Ramos cells; parental Ramos

[8] = molecular target: T5, human membrane IgA (mIgA), endogenously expressed on primary B cells and DAKIKI cells (human, UniProt P01876 1-398); assay: flow cytometry on primary human IgA+ memory B cells, mean of 3 donors
T5 construct: whole, on cells; also called IgA^+ CD19^+ primary B cells

[9] = molecular target: T5, human membrane IgA (mIgA), endogenously …; assay: cell-based or functional assay
[10] = molecular target: cynomolgus monkey membrane IgA (cynomolgus monkey); assay: cell-based or functional assay
[11] = molecular target: T5, human membrane IgA (mIgA), endogenously …; assay: cell-based or functional assay; remark: listed apart in the source
[12] = molecular target: T5, human membrane IgA (mIgA), endogenously …; assay: cell-based or functional assay; remark: listed apart in the source
[13] = molecular target: T6, membrane IgD on human IgD^+ (IgA^-) primary B cells (human, UniProt P01880 1-430); assay: flow cytometry on primary human B cells, gate IgD+ CD19+, MFI minus background
T6 construct: whole, on cells; Negative control cell population without membrane IgA; also called CD19^+, IgD^+ B cell populations; IgD cells
T6 sequence (heavy, looked up): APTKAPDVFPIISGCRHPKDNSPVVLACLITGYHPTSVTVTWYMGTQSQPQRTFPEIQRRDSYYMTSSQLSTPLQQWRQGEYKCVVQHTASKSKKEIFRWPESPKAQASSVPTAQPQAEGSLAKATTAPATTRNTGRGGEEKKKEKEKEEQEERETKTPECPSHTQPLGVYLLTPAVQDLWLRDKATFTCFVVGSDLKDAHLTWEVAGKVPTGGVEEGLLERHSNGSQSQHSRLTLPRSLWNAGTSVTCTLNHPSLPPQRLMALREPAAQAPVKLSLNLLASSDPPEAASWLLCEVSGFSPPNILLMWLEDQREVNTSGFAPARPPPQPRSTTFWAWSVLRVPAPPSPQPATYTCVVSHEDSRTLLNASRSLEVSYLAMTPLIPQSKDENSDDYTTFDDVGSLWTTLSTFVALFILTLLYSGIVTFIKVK

[14] = molecular target: T3, human membrane IgA overexpressed on …; assay: flow cytometry on human IgA+ Ramos cells, mean of 3 experiments
[15] = molecular target: T3, human membrane IgA overexpressed on …; assay: flow cytometry, cell binding on IgA+ Ramos cells; fit table under the plot (the text prints 2.9 nM)
[16] = molecular target: T3, human membrane IgA overexpressed on …; assay: flow cytometry, cell binding on IgA+ Ramos cells; fit table under the plot, unit from the y axis (gMFI minus secondary only)
[17] = molecular target: T3, human membrane IgA overexpressed on …; assay: flow cytometry on IgA+ Ramos cells
[18] = molecular target: T4, parental (IgA^-) Ramos cell line, which …; assay: flow cytometry on parental Ramos cells
Short MIGIS-α form = molecular target: T7, Short MIGIS-α form (human); assay: crystal structure
T7 construct: fused to the N-terminus of the VH of Fab-0027 in the crystal; also called Short Form
T7 peptide: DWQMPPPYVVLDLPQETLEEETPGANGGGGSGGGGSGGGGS

Long MIGIS-α form = molecular target: T8, Long MIGIS-α form (human); assay: crystal structure
T8 construct: fused to the N-terminus of the VH of Fab-0027 in the crystal; also called long MIGIS-α peptide; Long Form
T8 peptide: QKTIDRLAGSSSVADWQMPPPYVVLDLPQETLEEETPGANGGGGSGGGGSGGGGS

T5 sequence (P01876 whole entry): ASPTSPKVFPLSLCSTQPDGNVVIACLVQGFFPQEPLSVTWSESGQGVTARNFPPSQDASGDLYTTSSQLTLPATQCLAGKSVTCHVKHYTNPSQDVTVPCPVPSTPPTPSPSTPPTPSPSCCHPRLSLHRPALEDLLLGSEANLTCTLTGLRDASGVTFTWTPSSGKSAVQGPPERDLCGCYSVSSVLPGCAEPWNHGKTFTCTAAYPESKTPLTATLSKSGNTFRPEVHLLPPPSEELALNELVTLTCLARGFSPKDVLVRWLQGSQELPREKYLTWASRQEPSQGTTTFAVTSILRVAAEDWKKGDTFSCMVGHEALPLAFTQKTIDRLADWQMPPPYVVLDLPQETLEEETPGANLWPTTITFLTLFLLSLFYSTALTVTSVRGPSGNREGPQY
T3 sequence (heavy, as listed by the source): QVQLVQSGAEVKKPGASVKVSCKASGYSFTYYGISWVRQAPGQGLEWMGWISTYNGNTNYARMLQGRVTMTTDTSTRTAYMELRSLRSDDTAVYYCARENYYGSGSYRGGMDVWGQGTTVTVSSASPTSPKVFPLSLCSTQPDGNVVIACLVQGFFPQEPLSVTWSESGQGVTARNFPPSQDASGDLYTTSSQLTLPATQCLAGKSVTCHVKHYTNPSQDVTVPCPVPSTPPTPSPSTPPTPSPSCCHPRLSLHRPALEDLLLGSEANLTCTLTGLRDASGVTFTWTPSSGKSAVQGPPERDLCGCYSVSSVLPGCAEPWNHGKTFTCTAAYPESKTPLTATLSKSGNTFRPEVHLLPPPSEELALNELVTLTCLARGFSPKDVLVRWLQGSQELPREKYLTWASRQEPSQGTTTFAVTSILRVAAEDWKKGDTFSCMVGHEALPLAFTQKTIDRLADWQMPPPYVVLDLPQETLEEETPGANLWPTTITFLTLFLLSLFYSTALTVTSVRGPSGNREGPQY
T4 sequence (P01871 whole entry): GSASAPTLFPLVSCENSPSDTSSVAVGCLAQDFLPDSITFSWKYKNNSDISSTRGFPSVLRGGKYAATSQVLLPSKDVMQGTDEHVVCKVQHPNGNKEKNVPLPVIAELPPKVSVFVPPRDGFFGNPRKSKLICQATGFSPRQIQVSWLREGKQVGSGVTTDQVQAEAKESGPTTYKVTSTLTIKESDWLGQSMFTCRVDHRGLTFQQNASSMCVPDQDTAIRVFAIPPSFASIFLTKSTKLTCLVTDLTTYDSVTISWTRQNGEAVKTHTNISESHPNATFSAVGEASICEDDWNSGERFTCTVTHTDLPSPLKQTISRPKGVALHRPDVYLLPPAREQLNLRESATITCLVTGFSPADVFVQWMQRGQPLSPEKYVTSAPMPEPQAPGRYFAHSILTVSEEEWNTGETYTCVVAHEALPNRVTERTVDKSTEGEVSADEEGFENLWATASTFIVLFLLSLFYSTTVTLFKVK
Sequence of recombinant human CD3 epsilon (P07766 23-126 limits assumed): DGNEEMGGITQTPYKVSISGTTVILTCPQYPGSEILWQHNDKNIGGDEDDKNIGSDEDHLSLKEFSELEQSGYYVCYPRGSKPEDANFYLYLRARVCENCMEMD

B2: BMD-IgA-1156 (anti-CD3 binding arm h2B5v6) (antibody, V domains shown)
VH: EVQLVESGGGLVQPGGSLRLSCAASGFTFSDYYMTWVRQAPGKGLEWVAFIRNQARGYTSDHNPSVKGRFTISRDNAKNSLYLQMNSLRAEDTAVYYCARDRPSYYVLDYWGQGTTVTVSS
VL: DIQMTQSPSSLSASVGDRVTITCTSSQSLFNVRSQKNYLAWYQQKPGKAPKLLIYWASTRESGVPSRFSGSGSGTDFTLTISSLQPEDFATYYCKQSYDLFTFGGGTKVEIKR
notes: Only the anti-CD3 chains are tied to this name
Kd [6]: 17 nM

B4: GBT-IgA-0032 (T25) (antibody, V domains shown)
VH: QVQLVESGGGVVQPGRSLRLSCAASGFTFSSYGMHWVRQAPGKGLEWVAVISYDGSNKYYADSVKGRFTISRDNSKNTLYLQMNSLRAEDTAVYYCAKLYGGNPKDTIYHWGRGTLVTVSS
VL: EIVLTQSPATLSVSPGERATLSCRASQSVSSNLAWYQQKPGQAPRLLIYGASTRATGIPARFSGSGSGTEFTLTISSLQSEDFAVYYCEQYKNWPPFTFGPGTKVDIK
EC50 [15]: 2.99 nM | Top [16]: 33700 gMFI | EC50 [17]: 2.9 nM | fold MFI compared to H05 [17]: ~4 fold | binding result [18]: no binding

Further lines, with some results ahead:

Kd [1]: 11.9 nM | koff [1]: 0.0132 s⁻¹ | kon [1]: 1.1e+06 M⁻¹ s⁻¹ | Kd [2]: 10.7 nM | koff [2]: 0.0316 s⁻¹ | kon [2]: 2.96e+06 M⁻¹ s⁻¹ | Fold Diff EC50 (OAA format in IgA Ramos by FLOW) [3]: 1 fold | fold improved binding over GBT-IgA-0070 (H05 OAA) [4]: ~5 fold | fold improved affinity over GBT-IgA-0070 (H05 OAA) [5]: ~20 fold
B1: GBT-IgA-0071 (T18 in one armed format) (antibody)
heavy: not shown
chain: EPKSSDKTHTCPPCPAPEAAGAPSVFLFPPKPKDTLMISRTPEVTCVVVDVSHEDPEVKFNWYVDGVEVHNAKTKPREEQYNSTYRVVSVLTVLHQDWLNGKEYKCKVSNKALPAPIEKTISKAKGQPREPQVYTLPPCREEMTKNQVSLSCAVKGFYPSDIAVEWESNGQPENNYKTTPPVLDSDGSFFLVSKLTVDKSRWQQGNVFSCSVMHEALHNRYTQKSLSLSPGK
light: not shown
notes: One-armed antibody; also called T18 OAA

binding result [7]: no binding (tested: about 300 nM) | EC50 [8]: 49.8 nM | binding result [13]: no binding (tested: about 500 nM) | EC50 [14]: 40.5 nM
B3: GBT-IgA-1602, anti-MIGIS-α/CD3 bispecific antibody (bispecific antibody)
heavy 1: not shown
light 1: not shown
heavy 2: EVQLVESGGGLVQPGGSLRLSCAASGFTFSDYYMTWVRQAPGKGLEWVAFIRNQARGYTSDHNPSVKGRFTISRDNAKNSLYLQMNSLRAEDTAVYYCARDRPSYYVLDYWGQGTTVTVSSASTKGPSVFPLAPSSKSTSGGTAALGCLVKDYFPEPVTVSWNSGALTSGVHTFPAVLQSSGLYSLSSVVTVPSSSLGTQTYICNVNHKPSNTKVDKKVEPKSCEKTHTCPPCPAPEAAGAPSVFLFPPKPKDTLMISRTPEVTCVVVDVSHEDPEVKFNWYVDGVEVHNAKTKPREEQYNSTYRVVSVLTVLHQDWLNGKEYKCKVSNKALPAPIEKTISKAKGQPREPQVYTLPPSREEMTKNQVSLTCEVKGFYPSDIAVEWESNGQPENNYKTTPPVLDSDGSFFLYSKLTVDKSRWQQGNVFSCSVMHEALHNHYTQKSLSLSPGK
light 2: DIQMTQSPSSLSASVGDRVTITCTSSQSLFNVRSQKNYLAWYQQKPGKAPKLLIYWASTRESGVPSRFSGSGSGTDFTLTISSLQPEDFATYYCKQSYDLFTFGGGTKVEIKRTVAAPSVFIFPPSDEQLKSGTASVVCLLNNFYPREAKVQWKVDNALQSGNSQESVTEQDSKDSTYSLSSTLTLSKADYEKHKVYACEVTHQGLSSPVTKSFNRGEC
EC50 (nM), IgA producing B cell kill [9]: 1.5 nM | Primary cell killing, potency EC50 (nM), cyno memory membrane IgA+ [10]: 0.19 nM | Primary cell killing, potency EC50 (nM), cyno soluble plasma cells (IgA secreting) [10]: 1.34 nM | Primary cell killing, potency EC50 (nM), human memory B cells (membrane IgA+) [11]: 0.73 nM | Primary cell killing, potency EC50 (nM), human plasma cells (IgA secreting) [11]: 1.67 nM | EC50 (nM), IgA^+ memory B cell kill [12]: 0.587 nM

binding result (Short MIGIS-α form): binds | binding result (Long MIGIS-α form): binds
B5: Fab of GBT-IgA-0027 (Fab-0027) (Fab, V domains shown)
VH: QVQLVESGGGVVQPGRSLRLSCAASGFTFSSYGMHWVRQAPGKGLEWVAVISYDGSNKYYADSVKGRFTISRDNSKNTLYLQMNSLRAEDTAVYYCAKLYGGNPKDTIYHWGRGTLVTVSS
VL: not shown
notes: Fab; constant parts not specified; antigen and Fab are written here as two molecules; also called VH-Fab-0027; T18 Fab

From patent publication US20250154287A1 (Pfizer, published 2025)
